132 substances from the supplement of paper PMC12042874 can be followed below.

± gives the uncertainty stated by the source.

This data set is described as follows: amyloid nucleation score (Sup35N fusion, yeast selection) (log enrichment); library NNK3; higher = more nucleation; inactive = no reads after selection. In short, it runs like this: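 The nucleation score is a DiMSum log enrichment of output over input reads, centred on the mode score of non-aggregating sequences. Sequences under 100 input reads were excluded, and reads came from Illumina sequencing of plasmid inserts. Psi-negative yeast expressing Sup35N fused to peptides of 20 random codons were induced with 100 μM copper sulfate for 24 hours and grown 7 days at 30°C on medium lacking adenine and uracil. Random libraries had three technical output replicates.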
In the case of TPHFYLIYALGISLIFWFVE, the amyloid nucleation score entry is “inactive”.

Regarding TPSRLPQAACWQ, the amyloid nucleation score result is “inactive”.

With TPVTGQQWNCFCTILHSE, the amyloid nucleation score is 2.52 ± 0.08.

Regarding TQDGELV, the amyloid nucleation score result is “inactive”.

In the case of TQHTTYTPLPHTELRLPYPQ, the amyloid nucleation score entry was “inactive”.

In the case of TQMILWVM, the amyloid nucleation score entry is “inactive”.

As for TQRTGY, the amyloid nucleation score result was “inactive”.

In the case of TRFARA, the amyloid nucleation score entry is “inactive”.

On to TRFGRSANWLFFSAPTGRQN, for which the amyloid nucleation score result was “inactive”.

Turning to TRFVTRNDMYLRYILVCRVA, the amyloid nucleation score result was “inactive”.

Turning to TRHWDVRSRISRTLVCFGLK, the amyloid nucleation score result is “inactive”.

As to TRLWDKD, the amyloid nucleation score entry is “inactive”.

TRNLPTN: the amyloid nucleation score entry was “inactive”.

As for TRTHPDVNRAKMDVKGDAKI, the amyloid nucleation score entry was “inactive”.

On to TSFGPKLPTGVFVCEGSNDR, for which the amyloid nucleation score entry was “inactive”.

On to TSGGQRAAVWIYFTNEVMKY, for which the amyloid nucleation score worked out at 0.207 ± 0.34.

As to TSILEWVSFDGSM, the amyloid nucleation score entry is “inactive”.

As for TSLLGLRKHFLPHLIYMRNS, the amyloid nucleation score result was “inactive”.

In the case of TSQGIYHVVCCSSSEFRTLG, the amyloid nucleation score was 2.48 ± 0.055.

For TSRDQPRNVYVVVAVI, the amyloid nucleation score entry was “inactive”.

As to TSRNESHTSDYSLLNHNSLL, the amyloid nucleation score entry is “inactive”.

TSSLDEGTFV yielded an amyloid nucleation score of 0.644 ± 0.16.

TSTRSEAFRVVVTLPVAVNW: the amyloid nucleation score result is “inactive”.

As to TSVDGLCSFMDLRL, the amyloid nucleation score entry was “inactive”.

Regarding TSVTSTSLSGSLSAV, the amyloid nucleation score entry was “inactive”.

Take TSVWVYTVPSFVGNDIDTS: the amyloid nucleation score entry is “inactive”.

Take TSWLVWRKGNGLGGNGQQRR: the amyloid nucleation score result is “inactive”.

Regarding TSYNFTQLTPILVKLMQMNL, the amyloid nucleation score entry was “inactive”.

For TTDFSNMLDLSGVKVSGVLP, the amyloid nucleation score entry is “inactive”.

As to TTEFKIDR, the amyloid nucleation score entry was “inactive”.

As for TTFIN, the amyloid nucleation score entry is “inactive”.

Take TTFSGETYEYYMFMCW: the amyloid nucleation score stood at 0.532 ± 0.17.

On to TTFSLTLIGFNDSGVKLLM, for which the amyloid nucleation score is 2.21 ± 0.069.

TTIFLDS: the amyloid nucleation score entry was “inactive”.

Turning to TTLVSNWQCSMGCCEVLWR, the amyloid nucleation score came out at 3.32 ± 0.075.

In the case of TTMWTIKENFTWIVITVDSI, the amyloid nucleation score entry was “inactive”.

Consider TTPYWRRECRWSEFGFA, for which the amyloid nucleation score entry is “inactive”.

As for TTSNMGVVHYL, the amyloid nucleation score entry was “inactive”.

Regarding TVDVIRYISPDLDKTSYEWK, the amyloid nucleation score entry was “inactive”.

With TVEQYWRNEREWF, the amyloid nucleation score result is “inactive”.

In the case of TVGGEIVNSLGVWCYRVCKR, the amyloid nucleation score came to 0.723 ± 0.26.

As to TVGSRGSTPHCTLLLVSWSL, the amyloid nucleation score result is “inactive”.

Take TVGVKKYAMGRRYIV: the amyloid nucleation score entry was “inactive”.

For TVHILANRPRAQYD, the amyloid nucleation score entry was “inactive”.

TVLVAGIGCEWSMGESTAMW: the amyloid nucleation score entry was “inactive”.

For TVPDRDFMFIRIRSHCYVVD, the amyloid nucleation score entry was “inactive”.

Consider TVPIILVSTVRANMFFETRN, for which the amyloid nucleation score was 1.54 ± 0.093.

Take TVQFMRKAQRQFSGA: the amyloid nucleation score entry is “inactive”.

TVRDTEFLWFGDWLRRGSLS: the amyloid nucleation score was -0.034 ± 0.77.

As to TVTLRRYLSMERPYTSIFSI, the amyloid nucleation score entry is “inactive”.

In the case of TVTWDWNRSEEGRCYLLLWV, the amyloid nucleation score entry is “inactive”.

Turning to TWCGFWTLMERVYHRRWTSL, the amyloid nucleation score entry is “inactive”.

Take TWDLY: the amyloid nucleation score result was “inactive”.

For TWWCLN, the amyloid nucleation score result was “inactive”.

Take TYCLKLMSQAAPTIEKT: the amyloid nucleation score result is “inactive”.

The substance TYDTGWKCREPNVTIFNVWL yielded an amyloid nucleation score of 2.91 ± 0.053.

As for TYEVRTCWDWQRMGSMYLAR, the amyloid nucleation score result was “inactive”.

Regarding TYFKSGRNILAHIYMWLILG, the amyloid nucleation score entry was “inactive”.

Turning to TYFLSDWWRDRSNWLWFLAH, the amyloid nucleation score result is “inactive”.

On to TYKHTSWETLDDVFSDGSSS, for which the amyloid nucleation score result is “inactive”.

On to TYLIWLGHRAHPMSLLHSFA, for which the amyloid nucleation score result was “inactive”.

Take TYLNTVRLKSGMMMNMKSTR: the amyloid nucleation score result was “inactive”.

As to TYPVGPGGFFWDLGCV, the amyloid nucleation score result is “inactive”.

Take TYRVLE: the amyloid nucleation score result was “inactive”.

With TYTWKVTNSTISQLFGYLAD, the amyloid nucleation score result was “inactive”.

For TYYADTLAFNSTS, the amyloid nucleation score result is “inactive”.

Turning to TYYLSMN, the amyloid nucleation score result was “inactive”.

Take VAAMSVFSVGCLINIALRSN: the amyloid nucleation score worked out at 0.93 ± 0.2.

For the substance VACCAGFDNRAVLWGCANPI, the amyloid nucleation score result was “inactive”.

Substance VAFMIHYMKLPKYSHPWVHN returned an amyloid nucleation score of 0.041 ± 0.59.

VALWLVWLFYMRFRGSSFEL: the amyloid nucleation score entry is “inactive”.

Turning to VASIFRVYAVVGWSVVLVGV, the amyloid nucleation score result was “inactive”.

As to VAVLVNALSLPEVGKGVVRR, the amyloid nucleation score came out at 1.84 ± 0.083.

Consider VCEGMKMAALRYREERC, for which the amyloid nucleation score result was “inactive”.

With VCLFHDSLRDNYRT, the amyloid nucleation score entry is “inactive”.

Consider VCMLVMYESRLNVEKAVLLG, for which the amyloid nucleation score was -0.083 ± 0.64.

In the case of VCSCAHGHTGSEESRSVGSA, the amyloid nucleation score entry was “inactive”.

VCSSGQKSLKMLRIFHIFNP: the amyloid nucleation score was -0.352 ± 0.87.

On to VCSVVARWFVESFCCISWMC, for which the amyloid nucleation score result is “inactive”.

Consider VCTLGFFSKMGRGPRYYS, for which the amyloid nucleation score entry was “inactive”.

Take VCVLMIFNIVRRGMYSSARV: the amyloid nucleation score result is “inactive”.

The substance VCVNSLPYLICDIRVIIDRG displayed an amyloid nucleation score of 1.11 ± 0.13.

VCVSVRDTCGLCLLVYDNTV registered an amyloid nucleation score of 2.11 ± 0.079.

Take VCYYRQACTITNLLVMVFVC: the amyloid nucleation score entry is “inactive”.

Consider VDEADVRKHMT, for which the amyloid nucleation score entry is “inactive”.

As to VDMSNFRANVVTHSPIGGLR, the amyloid nucleation score result is “inactive”.

On to VDNSFEYIWDLFTVDHMSGA, for which the amyloid nucleation score result is “inactive”.

Turning to VDSHANHGSNHRWSASDEIS, the amyloid nucleation score result was “inactive”.

Turning to VDSSRIKCSNVN, the amyloid nucleation score result is “inactive”.

For VDVAVFLEMLYCWCRDGFTR, the amyloid nucleation score was found to be 1.79 ± 0.1.

As to VDYLRVLWQAQFGNFELWSR, the amyloid nucleation score entry was “inactive”.

With VEATSTRGDTAPVPERGMLG, the amyloid nucleation score was -1.01 ± 1.7.

For VEFSAIFFCTLLD, the amyloid nucleation score result is “inactive”.

As to VEFSVFGERNVIYGVLSWRS, the amyloid nucleation score turned out to be 1.12 ± 0.12.

In the case of VEGRMLSYLHVIYMYSGWRK, the amyloid nucleation score result is “inactive”.

With VEKCSVCLPTFEGWPLSKRF, the amyloid nucleation score entry is “inactive”.

For the substance VERRMTKVWTGARSPGRVFW, the amyloid nucleation score entry was “inactive”.

Substance VESYPVGLY yielded an amyloid nucleation score of 1.56 ± 0.068.

Substance VEVRVYTFF showed an amyloid nucleation score of 2.23 ± 0.074.

Turning to VEWLTSLVVIFWNFGKNKFL, the amyloid nucleation score result is “inactive”.

On to VFAAKGPTMYRSARVS, for which the amyloid nucleation score entry was “inactive”.

Regarding VFFFMNQSRRDRIE, the amyloid nucleation score was 1.72 ± 0.11.

In turn, VFFLNIAIIRVECSYPLVRK had an amyloid nucleation score of -0.223 ± 0.75.

Take VFFSWPMARKCEGSEDHPNF: the amyloid nucleation score is 0.005 ± 0.98.

As for VFFYAASD, the amyloid nucleation score entry was “inactive”.

For VFGFMCNYSFVATSRLCVIG, the amyloid nucleation score entry is “inactive”.

Substance VFLHVWCGRVGKL displayed an amyloid nucleation score of -0.089 ± 0.98.

Take VFMGQDLWMSLGAEDEDLAW: the amyloid nucleation score entry was “inactive”.

For VFNMLGFSDY, the amyloid nucleation score result is “inactive”.

Substance VFSVHVWQCSNLFQRMLCNF yielded an amyloid nucleation score of 1.06 ± 0.14.

Take VFTVF: the amyloid nucleation score entry is “inactive”.

As to VFVLCSSLYEGFTYYRWISF, the amyloid nucleation score result is “inactive”.

With VFVMETTKLFSNDIGVRGGW, the amyloid nucleation score is 0.717 ± 0.15.

Take VFVNSYS: the amyloid nucleation score result is “inactive”.

Turning to VFVPTKYHYMYVLGQWDIFV, the amyloid nucleation score entry is “inactive”.

Turning to VFVVQNGMPTRFECVLGVQR, the amyloid nucleation score entry is “inactive”.

Regarding VFYIVMMLVRAPIFFNGVPT, the amyloid nucleation score result is “inactive”.

On to VFYSKKDRMGGQFS, for which the amyloid nucleation score entry is “inactive”.

As to VGGGVPVTLGFSLRRSWSVV, the amyloid nucleation score amounted to 0.199 ± 0.62.

With VGHPFNCSLDCF, the amyloid nucleation score entry was “inactive”.

For the substance VGMISCKTILEFGGMSSFVM, the amyloid nucleation score entry is “inactive”.

With VGNFYVSNVAFLWVK, the amyloid nucleation score entry is “inactive”.

For the substance VGPLSDSVFMYGT, the amyloid nucleation score result is “inactive”.

As for VGRVRQVAQLDMGPDMYDRV, the amyloid nucleation score entry was “inactive”.

For the substance VGSIARLFVQTAMPVPKLAR, the amyloid nucleation score entry was “inactive”.

For VGSITVRLWYILECGEEVDC, the amyloid nucleation score result is “inactive”.

For the substance VGSNTVM, the amyloid nucleation score was -0.572 ± 0.84.

Consider VGTMKNLERVRVCYD, for which the amyloid nucleation score entry was “inactive”.

As for VGVFSIMV, the amyloid nucleation score result is “inactive”.

Substance VGVYITMVYVSIKENRVEGN registered an amyloid nucleation score of 0.804 ± 0.17.

As for VHAMWKSICNTSCML, the amyloid nucleation score stood at 2.53 ± 0.052.

VHFLSTVGMKLTALYKGVVM: the amyloid nucleation score result was “inactive”.
